The results in this text go back to IntAct's records for PubMed 27284196.

The labels stand for the following.
B1: Transcriptional regulator LdrP (Thermus thermophilus (strain HB8 / ATCC 27634 / DSM 579)), Q53W63 (parent)
chain: MKRFARKETIYLRGEEARTLYRLEEGLVRVVELLPDGRLITLRHVLPGDYFGEEALEGKAYRYTAEAMTEAVVQGLEPRAMDHEALHRVARNLARQMRRVQAYEAHLQTGELRARIARYLLFLADTPLSARDRQGIYVTVSHEEIADATASIRESVSKVLADLRREGLIATAYRRVYLLDLAALEREAGSALEAA
partner: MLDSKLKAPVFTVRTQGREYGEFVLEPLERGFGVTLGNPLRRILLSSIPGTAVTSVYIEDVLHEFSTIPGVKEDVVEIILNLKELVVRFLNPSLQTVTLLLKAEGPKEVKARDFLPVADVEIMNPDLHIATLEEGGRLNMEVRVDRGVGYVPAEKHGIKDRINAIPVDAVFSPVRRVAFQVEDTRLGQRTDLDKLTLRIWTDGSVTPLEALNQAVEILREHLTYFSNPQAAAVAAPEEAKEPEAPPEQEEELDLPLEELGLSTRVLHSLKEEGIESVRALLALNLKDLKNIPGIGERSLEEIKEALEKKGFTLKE

In this assay the parent is B1. The note with it: with rpoa_thet8 rpoA.
For the variant D125K, the “effect of a mutation on the interaction” value is “disrupting interaction strength”. The result for E185K reads “disrupting interaction strength”.
